The target of data set [1] is Salpingoeca rosetta caveolin (F2U793) (Salpingoeca rosetta). In words: cryo-EM structure.
Data set [2] deals with the molecule itself. Description: cryo-EM structure.

For the molecule “Salpingoeca rosetta caveolin (F2U793) (natural protein)”, the stoichiometry N in data set [1] is 11.

B1: Strongylocentrotus purpuratus caveolin (A0A7M7T4C2) (natural protein, UniProt A0A7M7T4C2 1-159, looked up)
chain: MELIHPENGPSGTVQVPLIQGVDQSDTEDVYRLSPHVTTGFADTFKESNDIMGFSFMEKVNGAIYKYTHFAFYAVLNLLLAPFIAFSFGLSFAVMHFAVVWFVQPIMKLYYVWLRVFNLAYEPALRLVCDPIHRSIALILSGIKGQFKMNSSDVKTSQV
In the case of B1, in data set [2], the “stoichiometry N” value was determined as 11.

The values above are taken from publication doi:10.1101/2022.11.15.516482 (bioRxiv, 2022).
